Measured values from patent publication US20210388105A1 (ELPISCIENCE SUZHOU BIOPHARMA, published 2021).
Where a chain is given by its changes, count along the chain named.

B1: Antibody T895 (antibody, V domains shown)
VH: EVQLQQSGPELVKPGASVKMSCKASGYTFTDYNMHWVKQSHGRTLEWIGYIVPLNGGSTFNQKFKGRATLTVNTSSRTAYMELRSLTSEDSAAYYCARGGTRFAYWGQGTLVTVSA
VL: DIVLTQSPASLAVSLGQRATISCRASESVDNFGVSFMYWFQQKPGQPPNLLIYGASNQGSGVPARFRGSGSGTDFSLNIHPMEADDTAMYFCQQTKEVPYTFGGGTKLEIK
notes: also called 31895
B2: hu23.H5L5 (antibody, V domains shown)
VH: QVQLVQSGAEVKKPGASVKVSCKASGYNLKDTFLHWVRQAPGQGLEWMGRIDPANGNIKYDPKFQGRVTITADTSANTAYMELISLRSEDTAVYYCANSPYYYGSGYRIFDVWGQGTTVTVSS
VL: QIVLTQSPATLSLSPGERATLSCSAFSSVNYMHWYQQKPGQAPRLLIYTTSNLASGIPTRFSGSGSGTSYTLTISSLEPEDFAVYYCQQRSTYPFTFGQGTKLEIK
notes: humanized c23
B3: mAb14 (antibody, V domains shown)
VH: EVKLEESGGGLVQPGGSMKLSCVASGFTFSKYWMNWVRQSPEKGLEWVAEIRLKSNKYGTHYAESVKGRFTISRDDSKNNVYLQMNNLRPEDTGIYYCTTQLDLYWFFDVWGAGTTVTVSS
VL: DIVMTQSPAILSVTPGDRVSLSCRASQSISDYLHWYQQKSHESPRLLIKYASQSISGIPSRFSGSGSGSNFTLSINSVEPEDVGVYFCQNGHSLPLTFGAGTKLELR
notes: mouse hybridoma antibody
B4: Antibody 9-8B (antibody, V domains shown)
VH: QIQLVQSGPELKKPGETVKISCKASGYTFTHYGMNWVKQAPGKGLKWMGWINTYTGELTYADDFKGRFAFSLETSASTAYLQINNLKNEDTATYFCARRAYYRYDYVMDYWGQGTSVTVSS
VL: DIVMTQSQKFMSTSVGDRVSVTCKASHNVGTNVAWYQQKPGQSPKALIYSASYRYSGVPGRFTGSGSGTDFTLTISNVQSEDLAEYFCHQYNNYPYTFGGGTKLEIK

How the values were obtained:
[1] = molecular target: T1, cynomolgus CD39 (full length, on CHOK1-cynoCD39 cells) (cynomolgus monkey, UniProt A0A7N9DGH8 1-510); assay: FACS, CHOK1-cynoCD39 cells
T1 construct: whole, on cells; also called cCD39
T1 sequence: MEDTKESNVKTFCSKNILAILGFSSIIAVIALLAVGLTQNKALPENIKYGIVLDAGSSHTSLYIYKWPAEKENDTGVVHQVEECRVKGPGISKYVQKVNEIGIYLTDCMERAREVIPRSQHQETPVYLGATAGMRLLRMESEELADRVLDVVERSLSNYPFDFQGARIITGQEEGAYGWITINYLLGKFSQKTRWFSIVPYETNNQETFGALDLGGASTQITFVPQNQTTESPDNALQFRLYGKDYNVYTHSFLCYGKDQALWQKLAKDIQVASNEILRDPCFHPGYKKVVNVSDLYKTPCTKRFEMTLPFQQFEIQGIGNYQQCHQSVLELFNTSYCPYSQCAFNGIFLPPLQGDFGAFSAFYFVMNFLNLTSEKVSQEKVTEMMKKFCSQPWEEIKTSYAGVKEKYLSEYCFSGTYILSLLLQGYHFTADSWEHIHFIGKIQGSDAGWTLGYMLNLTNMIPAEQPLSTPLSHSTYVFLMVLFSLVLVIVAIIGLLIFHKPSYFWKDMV
Procedure: CHOK1-hCD39, CHOK1-cCD39, CHOK1-mCD39 and CHOK1-blank cells were maintained in culture medium according to ATCC procedure. Cells were collected and re-suspended in blocking buffer at a density of 3×10⁶ cells/ml. Cells were transferred to 96 well FACS plates at 100 μl/well (3×10⁵ cells/well), the plates were centrifuged and washed twice with FACS buffer (PBS, 1% FBS, 0.05% Tween-20). 4-folds serial dilution of anti-CD39 antibodies were prepared in FACS buffer starting from 30 μg/ml. Reference antibody 9-8B and mouse/human control IgG were used as positive and negative controls, respectively. Cells were re-suspended in 100 μL/well diluted antibodies, and the plates were incubated at 4° C. for 60 min. […] The plates were washed with FACS buffer, and cells were re-suspended in 100 μL/well of PBS. Cells were then analyzed with FACSVerse™ and mean fluorescence intensity were determined. Full binding curves were generated on the CD39 expressing cells by testing a range of antibody concentrations. Apparent affinity was determined for each antibody using Prism software. […]
Reference antibodies T895 and 1394 were tested in parallel as control antibodies. […] Maximum signal (mean fluorescence intensity, MFI) differed between cells for each antibody may result from their different expression level.

[2] = molecular target: T2, human CD39 (full length, on cells) (human, UniProt P49961 1-510); assay: FACS, SK-MEL-5 cells
T2 construct: Recombinant on CHOK1-hCD39 cells or natural on SK-MEL-28, SK-MEL-5 and MOLP-8 cells; the cell line is named under assay; also called hCD39; ENTPD1
T2 sequence: T1 sequence with I47V, Y94F, I221V, T230I, V329I, N368K, S391A, V489F, I490T
Procedure: (§1) Similarly, human CD39 expressing cells SK-MEL-5, SK-MEL-28 or MOLP-8, were incubated with a gradient concentration of anti-CD39 antibodies for 30 minutes at 4° C. Cells were washed 3 times using FACS buffer and next incubated with fluorescence labelled secondary antibody (goat-anti-mouse IgG or goat anti-human IgG) for 30 minutes at 4° C. Cells were washed 3 times and then re-suspended in FACS buffer and analyzed by flow cytometry analysis on BD Celesta. Data plotted and analyzed using GraphPad Prism 8.02.
Binding affinity of the humanized antibodies hu23.H5L5 and hu14.H1L1 were tested on different cells by FACS following the similar method as described in Example 3.2.
Reference antibodies T895 and 1394 were tested in parallel as control antibodies. As shown in FIG. 12 and summarized in Table 23, both antibodies hu23.H5L5 and hu14.H1L1 bound to human and cynomolgus CD39 expressing cells in a dose-dependent manner and with similar affinity by EC₅₀ at a sub-nanomolar or nanomolar level. Neither of them recognized mouse CD39 in the FACS study. Maximum signal (mean fluorescence intensity, MFI) differed between cells for each antibody may result from their different expression level.

[3] = molecular target: T2, human CD39 (full length, on cells); assay: FACS, SK-MEL-28 cells
Procedure: (§2) FACS were used to determine binding of the antibodies to cell lines expressing CD39 naturally (SK-MEL-28) or recombinantly (CHOK1-hCD39, CHOK1-cynoCD39, and CHOK1-mCD39), or with cells lacking CD39 expression (CHOK1-blank) as a negative control.
as §1

[4] = molecular target: T2, human CD39 (full length, on cells); assay: FACS, CHOK1-hCD39 cells
Source text: as §2
CHOK1-hCD39, CHOK1-cCD39, CHOK1-mCD39 and CHOK1-blank cells were maintained in culture medium according to ATCC procedure. Cells were collected and re-suspended in blocking buffer at a density of 3×10⁶ cells/ml. Cells were transferred to 96 well FACS plates at 100 μl/well (3×10⁵ cells/well), the plates were centrifuged and washed twice with FACS buffer (PBS, 1% FBS, 0.05% Tween-20). 4-folds serial dilution of anti-CD39 antibodies were prepared in FACS buffer starting from 30 μg/ml. Reference antibody 9-8B and mouse/human control IgG were used as positive and negative controls, respectively. Cells were re-suspended in 100 μL/well diluted antibodies, and the plates were incubated at 4° C. for 60 min. […] The plates were washed with FACS buffer, and cells were re-suspended in 100 μL/well of PBS. Cells were then analyzed with FACSVerse™ and mean fluorescence intensity were determined. Full binding curves were generated on the CD39 expressing cells by testing a range of antibody concentrations. Apparent affinity was determined for each antibody using Prism software.

[5] = molecular target: T2, human CD39 (full length, on cells); assay: cell-based or functional assay

Binder	EC50 [1]	EC50 [2]	EC50 [3]	EC50 [4]	SK-MEL-28 cell based ATPase inhibition % at 10 nM [5]
B1	4.19 nM	0.21 nM			
B2	3.38 nM	0.69 nM			
B3			28 nM	2.5 nM	57%
B4			0.8 nM	1.7 nM	21%
